± gives the uncertainty stated by the source.
Assay: amyloid nucleation score (Sup35N fusion, yeast selection) (log enrichment); library NNK3; higher = more nucleation; inactive = no reads after selection
How it was run: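 In psi-negative yeast, Sup35N fusions carrying peptides of 20 random codons were induced with 100 μM copper sulfate for 24 hours. The cells then grew 7 days at 30°C on medium lacking adenine and uracil, and plasmid inserts from input and output were Illumina-sequenced, excluding sequences with under 100 input reads. Nucleation score is the DiMSum log enrichment of output over input reads, centred on the mode score of non-aggregating sequences.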

| Substance | amyloid nucleation score |
| --- | --- |
| VKVVNTSCPMDGLPNCLTRR | inactive |
| VLAKLVFKPYKKGVISQ | inactive |
| VLCDDTCYFADVSSWSWDWF | inactive |
| VLCFI | inactive |
| VLCHKSKWNMH | 0.322 ± 0.26 |
| VLCLVAGDYMNELIGGKGKV | inactive |
| VLDRVKNRVFYLLVECQKLF | inactive |
| VLGNFSSFVAAKVARRS | inactive |
| VLIDYYMMSTSN | inactive |
| VLILFVCPNFVLGSGVLIGW | inactive |
| VLKESMLGISLLMGTLRW | 0.2 ± 0.56 |
| VLLLTMEFGASDVFCWVVKY | inactive |
| VLLMRNAVIYPGSGMSSSSA | inactive |
| VLLPPGVE | -0.23 ± 0.98 |
| VLMMPPAFRRQSFNFRCVSQ | inactive |
| VLPRRTLACIKRTNKASETV | inactive |
| VLSEESNYAKM | inactive |
| VLTVEMLHAWNCG | inactive |
| VLVIGMWKTFYNYMQILCQA | inactive |
| VLVLS | inactive |
| VLVMISSWNYLMCIFFCINV | inactive |
| VLYCGHCFVFTRCSGWVQLG | inactive |
| VLYVTKGVIFRCGCYNVGED | 1.7 ± 0.11 |
| VMCLPLPKFI | inactive |
| VMCLRTFGASSFFI | -0.023 ± 0.55 |
| VMCVGYGTSRYSWVAFGLDK | inactive |
| VMFFDIKIMARFWTPNEL | inactive |

| Substance | amyloid nucleation score |
| --- | --- |
| VMHNVM | inactive |
| VMLCFTFSMLVLVGGQVCLY | inactive |
| VMLHSRFGRFRDNVTL | inactive |
| VMLNLQI | 1.18 ± 0.17 |
| VMLRTFSA | inactive |
| VMRFYQPSTASLYGSLASPR | inactive |
| VNALKRTGK | inactive |
| VNATDRSVSFLHKGPALDSN | inactive |
| VNEFNGDGGSQLRQKQNPLF | inactive |
| VNISVRQALHANYVGTCFVC | 1.85 ± 0.084 |
| VNKFNFNIVIFSNWNMYQ | 3.36 ± 0.062 |
| VNKVDGLETMQYIFTCGSWM | 0.098 ± 0.23 |
| VNLDTSSGKT | inactive |
| VNLPFNDKYHLVFIGMA | inactive |
| VNPISWGHVIVTYQN | inactive |
| VNSLATRNFIGTLCVVSHKR | inactive |
| VNSLVSRQINFIEVRRSMRW | 0.849 ± 0.23 |
| VNVEFLASVFPWNISKKCEQ | inactive |
| VNWSSFIFESTSIFS | 0.476 ± 0.28 |
| VNYRN | inactive |
| VNYYRCWLVSIRYYSLHDHL | 2.35 ± 0.055 |
| VPCMRNFDLYLKSVTDRLDK | inactive |
| VPGCA | -0.075 ± 1.1 |
| VPGDEHRDGKLGAKWWTCRR | inactive |
| VPGYAAMSPLLCYRGIPVQG | inactive |
| VPKAYR | inactive |
| VPLIMSRGRRCRMLFKLPST | inactive |

| Substance | amyloid nucleation score |
| --- | --- |
| VPLPEGFHNRTSNCIFFINE | 0.932 ± 0.12 |
| VPSPTFIHVARRSRYHYASR | inactive |
| VQAYLCEYR | inactive |
| VQGTILRSRQNCTL | 0.308 ± 0.48 |
| VQLSMPGFGDWCRIRWVTAG | inactive |
| VRAMCLPHV | inactive |
| VRDCTSQLINDGNNLVPGMW | inactive |
| VRILLRFLVVFRLYLVFC | inactive |
| VRLVGLCFYIAMSLPSSFFI | inactive |
| VRMMFSWPK | 0.902 ± 0.24 |
| VRPLRSVLFDVASNVIGSVG | inactive |
| VRSPPVPLNCVE | inactive |
| VRSRLGSGRDEKPRALSSCM | inactive |
| VRTFEAVLCVPIRLDWVRDR | inactive |
| VRTNPGGFWLNLCQQTQKES | inactive |
| VRTYNQCKSHVLDWLRNTYF | -0.295 ± 0.96 |
| VRVSPLCIGRPALGQAIAVF | inactive |
| VRWSWSMFVVYNSVES | inactive |
| VSCYSRYRVVVHRGSVVISR | inactive |
| VSCYVTHISYRSSFGSMFYS | inactive |
| VSDCESMAN | inactive |
| VSFLFDIW | 2.24 ± 0.06 |
| VSFLMIYLSSNCSVSVRYHY | inactive |
| VSGMNSKLFYW | inactive |
| VSGWFDWDFLDDNGQYWLHV | inactive |
| VSIDSSFLHRSLLS | inactive |

From the supplement of paper PMC12042874
